Measurements from PMC4240730.

Columns and labels:
basigin (Homo sapiens) = basigin (Homo sapiens) (UniProt P35613); conditions: cited from earlier work
[1] = biological target: basigin (immunoglobulin domains 1 and 2 of the short isoform, residues 22-205) (UniProt P35613); experiment: AUC
[2] = biological target: basigin (immunoglobulin domains 1 and 2 of the short isoform, residues 22-205) (UniProt P35613); experiment: SPR

PfRH5 (from UniProt Q8IFM5)
Kd (basigin (Homo sapiens)): 1.1 µM

PfRH5ΔN (residues K140-Q526) (from UniProt Q8IFM5 140-526) (domain or fragment)
stoichiometry N [1]: 1

PfRH5ΔNL (from UniProt Q8IFM5 140-526) (domain or fragment)
Kd [2]: 1.3 µM
